Measured values from patent publication US20130071921A1 (Pfizer, published 2013).

Assays:
[1] = biological target: T1, Recombinant human Dkk-1 (R&D Systems cat no. 1096-DK/CF), 10xHis tag at the C terminal (human, UniProt O94907 32-266); assay: SPR screening 37C (BIAcore/ProteOn), Fab lysate over biotinylated human Dkk-1
T1 construct: the actual N-terminus of the purified protein is marked in bold italic after residue 30, but the mark is an image lost in the text; also called rhuDkk-1; hDkk-1
T1 sequence: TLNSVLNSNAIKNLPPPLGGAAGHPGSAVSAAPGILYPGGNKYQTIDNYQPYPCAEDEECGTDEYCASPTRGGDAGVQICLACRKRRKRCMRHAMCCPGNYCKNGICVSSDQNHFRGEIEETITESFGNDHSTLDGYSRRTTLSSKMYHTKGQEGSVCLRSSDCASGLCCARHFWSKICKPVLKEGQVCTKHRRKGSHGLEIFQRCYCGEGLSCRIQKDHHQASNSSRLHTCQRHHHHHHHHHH
Protocol: (§1) For screening assays to determine binding and dissociation rates of huMabJC18 variants to human Dkk1, either BIAcore or ProteOn XPR36 (BioRad, Inc.) systems were used. For the BIAcore assay, biotinylated-human Dkk1 was captured on SA (streptavidin) BIAcore chips according to the supplier's instructions. Biotinylated-human Dkk-1 protein was diluted into HBS-EP, and injected over the chip at a concentration of 5 μg/mL. Flow times across the individual chip channels were selected to achieve an antigen density of approximately 500-600 response units (RU). HBS-EP buffer was used as running buffer. Filtered recombinant E.coli cell lysates were injected at high temperature (37° C.) for 1 min at 30 ul/min, allowing a 1-5 min dissociation phase. Surfaces were regenerated with 8 mM NaOH+8% ethanol. A positive control Fab (clone 24) was injected twice at the start of the experiment, and again at the end of the assay to assess reproducibility.
(§2) For the ProteOn assay, biotinylated human Dkk-1 was injected for 1 min at serial fold dilutions empirically determined to yield different levels of immobilization (150-3000 RU) on five channels of a ProteOn NLC Neutravidin sensor chip. The sixth channel was left unmodified to serve as a reference surface. Recombinant Fabs in filtered E. coli lysates were injected at high temperature (37° C.) for 50 sec at 20 μl/min. Running buffer consisted of PBS+1 mg/ml BSA+0.005% Tween-20. The ProteOn is configured such that each injection flows over each of the five Dkk-1 channels as well as the reference channel, and six Fab samples can be injected simultaneously. Fab dissociation from the Dkk-1 surface was monitored for 20 min. The chip surface was regenerated with a 30-sec injection of 8% EtOH, 8 mM NaOH. Clone 24 Fab was used as control. Level of binding during association, and rate of dissociation for each clone was very consistent between different ligand channels.

[2] = biological target: T1, Recombinant human Dkk-1 (R&D Systems …); assay: theoretical: koff / estimated kon 1e6 1/Ms (SPR screening 37C)
Protocol: as §1
as §2, with “channels. […]” for “channels.”

B1: L2.4G10 (Fab, V domains shown)
VH: EVQLVESGGGLVQPGGSLRLSCAASGFTFSSYAISWVRQAPGKGLEWVASVSGWLDTYYPDSVKGRFTISRDNAKNSLYLQMNSLRAEDTAVYYCATSLRNYAFDYWGQGTTVTVSS
VL: EIVLTQSPATLSLSPGERATLSCRASESVDDFGISFMNWYQQKPGQAPRLLIYAASKQGSGIPARFSGSGSGTDFTLTISSLEPEDFAVYYCQQSKEVPPTFGGGTKVEIK
notes: tested as Fab (E. coli lysate, screening mode); human kappa CL and IgG2 CH1 not included here
koff [1]: 0.00276 s⁻¹
Kd [2]: 2.76 nM

B2: L2.P4.H3 (Fab, V domains shown)
VH: EVQLVESGGGLVQPGGSLRLSCAASGFTFSSYAISWVRQAPGKGLEWVASVSGWLDTYYPDSVKGRFTISRDNAKNSLYLQMNSLRAEDTAVYYCATSLENYAFDYWGQGTTVTVSS
VL: EIVLTQSPATLSLSPGERATLSCRASESVDDFGISFMNWYQQKPGQAPRLLIYAASKQGSGIPARFSGSGSGTDFTLTISSLEPEDFAVYYCQQSKEVPPTFGGGTKVEIK
notes: as for B1
koff [1]: 0.00274 s⁻¹
Kd [2]: 2.74 nM

B3: L3.1D7 (Fab, V domains shown)
VH: EVQLVESGGGLVQPGGSLRLSCAASGFTFSSYAISWVRQAPGKGLEWVASVSGWFRTYYPDSVKGRFTISRDNAKNSLYLQMNSLRAEDTAVYYCATSLRNYAFDYWGQGTTVTVSS
VL: EIVLTQSPATLSLSPGERATLSCRASESVDDFGISFINWYQQKPGQAPRLLIYAGSKQGSGIPARFSGSGSGTDFTLTISSLEPEDFAVYYCQQLKEVPPTFGGGTKVEIK
notes: as for B1
koff [1]: 0.000164 s⁻¹
Kd [2]: 0.164 nM

B4: L3.1H3 (Fab, V domains shown)
VH: EVQLVESGGGLVQPGGSLRLSCAASGFTFSSYAISWVRQAPGKGLEWVASVSGWLHTYYPDSVKGRFTISRDNAKNSLYLQMNSLRAEDTAVYYCATSLENYAFDYWGQGTTVTVSS
VL: EIVLTQSPATLSLSPGERATLSCRASESVDDFGISFINWYQQKPGQAPRLLIYAGSKQGSGIPARFSGSGSGTDFTLTISSLEPEDFAVYYCQQLKEVPPTFGGGTKVEIK
notes: as for B1
koff [1]: 0.00115 s⁻¹
Kd [2]: 1.15 nM

B5: L3.1B12 (Fab, V domains shown)
VH: EVQLVESGGGLVQPGGSLRLSCAASGFTFSSYAISWVRQAPGKGLEWVASVSGWFGTYYPDSVKGRFTISRDNAKNSLYLQMNSLRAEDTAVYYCATSLENYAFDYWGQGTTVTVSS
VL: EIVLTQSPATLSLSPGERATLSCRASESVDDFGISFINWYQQKPGQAPRLLIYAGSKQGSGIPARFSGSGSGTDFTLTISSLEPEDFAVYYCQQLKEVPPTFGGGTKVEIK
notes: as for B1
koff [1]: 0.00021 s⁻¹
Kd [2]: 0.21 nM

B6: L3.4H2 (Fab, V domains shown)
VH: EVQLVESGGGLVQPGGSLRLSCAASGFTFSSYAISWVRQAPGKGLEWVASVSGWGDTYYPDSVKGRFTISRDNAKNSLYLQMNSLRAEDTAVYYCATSLQNYAFDYWGQGTTVTVSS
VL: EIVLTQSPATLSLSPGERATLSCRASESVDDFGISFINWYQQKPGQAPRLLIYAGSKQGSGIPARFSGSGSGTDFTLTISSLEPEDFAVYYCQQLKEVPPTFGGGTKVEIK
notes: tested as Fab (E. coli lysate, screening mode); human kappa CL and IgG2 CH1 not included here; printed changes identical to L3.4E7
koff [1]: 4.8e-05 s⁻¹
Kd [2]: 0.048 nM

B7: L3.1A3 (Fab, V domains shown)
VH: EVQLVESGGGLVQPGGSLRLSCAASGFTFSSYAISWVRQAPGKGLEWVASVSGWFHTYYPDSVKGRFTISRDNAKNSLYLQMNSLRAEDTAVYYCATSLRNYAFDYWGQGTTVTVSS
VL: EIVLTQSPATLSLSPGERATLSCRASESVDDFGISFINWYQQKPGQAPRLLIYAGSKQGSGIPARFSGSGSGTDFTLTISSLEPEDFAVYYCQQLKEVPPTFGGGTKVEIK
notes: as for B1
koff [1]: 0.00018 s⁻¹
Kd [2]: 0.184 nM

B8: L3.2H10 (Fab, V domains shown)
VH: EVQLVESGGGLVQPGGSLRLSCAASGFTFSSYAISWVRQAPGKGLEWVASVSGWLGTYYPDSVKGRFTISRDNAKNSLYLQMNSLRAEDTAVYYCATSLKNYAFDYWGQGTTVTVSS
VL: EIVLTQSPATLSLSPGERATLSCRASESVDDFGISFINWYQQKPGQAPRLLIYAGSKQGSGIPARFSGSGSGTDFTLTISSLEPEDFAVYYCQQLKEVPPTFGGGTKVEIK
notes: as for B1
koff [1]: 0.000569 s⁻¹
Kd [2]: 0.569 nM

B9: L3.4E6 (Fab, V domains shown)
VH: EVQLVESGGGLVQPGGSLRLSCAASGFTFSSYAISWVRQAPGKGLEWVASVSGGLGTYYPDSVKGRFTISRDNAKNSLYLQMNSLRAEDTAVYYCATSLRNYAFDYWGQGTTVTVSS
VL: EIVLTQSPATLSLSPGERATLSCRASESVDDFGISFINWYQQKPGQAPRLLIYAGSKQGSGIPARFSGSGSGTDFTLTISSLEPEDFAVYYCQQLKEVPPTFGGGTKVEIK
notes: as for B1
koff [1]: 0.00099 s⁻¹
Kd [2]: 0.99 nM

B10: L2.P4.C10 (Fab, V domains shown)
VH: EVQLVESGGGLVQPGGSLRLSCAASGFTFSSYAISWVRQAPGKGLEWVASVSGWGDTYYPDSVKGRFTISRDNAKNSLYLQMNSLRAEDTAVYYCATSLKNYAFDYWGQGTTVTVSS
VL: EIVLTQSPATLSLSPGERATLSCRASESVDDFGISFMNWYQQKPGQAPRLLIYAASKQGSGIPARFSGSGSGTDFTLTISSLEPEDFAVYYCQQSKEVPPTFGGGTKVEIK
notes: as for B1
koff [1]: 0.00431 s⁻¹
Kd [2]: 4.31 nM

B11: L3.4E10 (Fab, V domains shown)
VH: EVQLVESGGGLVQPGGSLRLSCAASGFTFSSYAISWVRQAPGKGLEWVASVSGWGHTYYPDSVKGRFTISRDNAKNSLYLQMNSLRAEDTAVYYCATSLQNYAFDYWGQGTTVTVSS
VL: EIVLTQSPATLSLSPGERATLSCRASESVDDFGISFINWYQQKPGQAPRLLIYAGSKQGSGIPARFSGSGSGTDFTLTISSLEPEDFAVYYCQQLKEVPPTFGGGTKVEIK
notes: as for B1
koff [1]: 0.000533 s⁻¹
Kd [2]: 0.533 nM

B12: L2.P4.B5 (Fab, V domains shown)
VH: EVQLVESGGGLVQPGGSLRLSCAASGFTFSSYAISWVRQAPGKGLEWVASVSGWGDTYYPDSVKGRFTISRDNAKNSLYLQMNSLRAEDTAVYYCATSYENYAFDYWGQGTTVTVSS
VL: EIVLTQSPATLSLSPGERATLSCRASESVDDFGISFMNWYQQKPGQAPRLLIYAASKQGSGIPARFSGSGSGTDFTLTISSLEPEDFAVYYCQQSKEVPPTFGGGTKVEIK
notes: as for B1
koff [1]: 0.00532 s⁻¹
Kd [2]: 5.32 nM

B13: L2.P4.E7 (Fab, V domains shown)
VH: EVQLVESGGGLVQPGGSLRLSCAASGFTFSSYAISWVRQAPGKGLEWVASVSGWGDTYYPDSVKGRFTISRDNAKNSLYLQMNSLRAEDTAVYYCATSLRNYAFDYWGQGTTVTVSS
VL: EIVLTQSPATLSLSPGERATLSCRASESVDDFGISFMNWYQQKPGQAPRLLIYAASKQGSGIPARFSGSGSGTDFTLTISSLEPEDFAVYYCQQSKEVPPTFGGGTKVEIK
notes: as for B1
koff [1]: 0.00519 s⁻¹
Kd [2]: 5.19 nM

B14: L3.2H8 (Fab, V domains shown)
VH: EVQLVESGGGLVQPGGSLRLSCAASGFTFSSYAISWVRQAPGKGLEWVASVSGWLGTYYPDSVKGRFTISRDNAKNSLYLQMNSLRAEDTAVYYCATSLQNYAFDYWGQGTTVTVSS
VL: EIVLTQSPATLSLSPGERATLSCRASESVDDFGISFINWYQQKPGQAPRLLIYAGSKQGSGIPARFSGSGSGTDFTLTISSLEPEDFAVYYCQQLKEVPPTFGGGTKVEIK
notes: as for B1
koff [1]: 0.000555 s⁻¹
Kd [2]: 0.555 nM

B15: L3.4E7 (Fab, V domains shown)
VH: EVQLVESGGGLVQPGGSLRLSCAASGFTFSSYAISWVRQAPGKGLEWVASVSGWGDTYYPDSVKGRFTISRDNAKNSLYLQMNSLRAEDTAVYYCATSLQNYAFDYWGQGTTVTVSS
VL: EIVLTQSPATLSLSPGERATLSCRASESVDDFGISFINWYQQKPGQAPRLLIYAGSKQGSGIPARFSGSGSGTDFTLTISSLEPEDFAVYYCQQLKEVPPTFGGGTKVEIK
notes: tested as Fab (E. coli lysate, screening mode); human kappa CL and IgG2 CH1 not included here; printed changes identical to L3.4H2
koff [1]: 0.000276 s⁻¹
Kd [2]: 0.276 nM
